The supplement of paper PMC9112550, “Optimization of the antimicrobial peptide Bac7 by deep mutational scanning” (BMC Biology, 2022)

System: Escherichia coli TOP10
Test: shrunken log2 fold change of peptide-encoding DNA abundance (4.5 h post-induction vs induction); higher = less antimicrobial activity (less host growth inhibition)
Conditions: time post-induction: 4.5 h; library: site-saturation at positions 5, 18, 19, 20
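Also: peptides expressed intracellularly from a pBAD plasmid library in pooled LB shake-flask culture, induced with 0.3% L-arabinose, DNA abundance read by NGS, three biological replicates, DESeq2 with apeglm shrinkage.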

| Sequence | shrunken log2 fold change |
| --- | --- |
| RRIRFRPPRLPRPRPRPSKLPRP | -0.42 |
| RRIRSRPPRLPRPRPRPLIEPRP | -0.06 |
| RRIRYRPPRLPRPRPRPVENPRP | -0.0898 |
| RRIRRRPPRLPRPRPRPYLWPRP | -0.439 |
| RRIRLRPPRLPRPRPRPSWQPRP | -0.0855 |
| RRIRMRPPRLPRPRPRPRCDPRP | 0.397 |
| RRIRNRPPRLPRPRPRPDFPPRP | -0.0345 |
| RRIRYRPPRLPRPRPRPVFMPRP | -0.484 |
| RRIRVRPPRLPRPRPRPQMVPRP | 0.0123 |
| RRIRKRPPRLPRPRPRPECDPRP | 3.35 |
| RRIRGRPPRLPRPRPRPGQCPRP | 0.275 |
| RRIRDRPPRLPRPRPRPPLPPRP | 0.737 |
| RRIRSRPPRLPRPRPRPPHTPRP | 0.159 |
| RRIRWRPPRLPRPRPRPAFLPRP | -0.0114 |
| RRIRERPPRLPRPRPRPPKHPRP | -0.0654 |
| RRIRMRPPRLPRPRPRPDWTPRP | 0.0113 |
| RRIRMRPPRLPRPRPRPKGEPRP | 1.27 |
| RRIRFRPPRLPRPRPRPDSNPRP | -0.758 |
| RRIRHRPPRLPRPRPRPKVKPRP | 0.235 |
| RRIRMRPPRLPRPRPRPCESPRP | -0.0088 |
| RRIRTRPPRLPRPRPRPCWQPRP | 0.0902 |
| RRIRDRPPRLPRPRPRPTTTPRP | 0.654 |
| RRIRYRPPRLPRPRPRPHLMPRP | -0.126 |

| Sequence | shrunken log2 fold change |
| --- | --- |
| RRIRFRPPRLPRPRPRPKANPRP | 0.00613 |
| RRIRDRPPRLPRPRPRPGGTPRP | 0.454 |
| RRIRSRPPRLPRPRPRPGETPRP | 0.488 |
| RRIRPRPPRLPRPRPRPRGAPRP | 0.495 |
| RRIRSRPPRLPRPRPRPMALPRP | 0.213 |
| RRIRYRPPRLPRPRPRPWERPRP | 0.0306 |
| RRIRTRPPRLPRPRPRPANVPRP | -0.0276 |
| RRIRIRPPRLPRPRPRPPWFPRP | -0.136 |
| RRIRDRPPRLPRPRPRPSYMPRP | -0.111 |
| RRIRWRPPRLPRPRPRPNWWPRP | 0.182 |
| RRIRPRPPRLPRPRPRPQEMPRP | 0.0716 |
| RRIRFRPPRLPRPRPRPQIDPRP | 0.0185 |
| RRIRIRPPRLPRPRPRPAEEPRP | -0.084 |
| RRIRARPPRLPRPRPRPTGYPRP | 0.191 |
| RRIRPRPPRLPRPRPRPYQPPRP | -0.125 |
| RRIRLRPPRLPRPRPRPYAIPRP | -0.233 |
| RRIRKRPPRLPRPRPRPWMHPRP | 0.00994 |
| RRIRKRPPRLPRPRPRPIHRPRP | -0.0202 |
| RRIRYRPPRLPRPRPRPHVQPRP | -0.0701 |
| RRIRFRPPRLPRPRPRPVNDPRP | -0.0167 |
| RRIRVRPPRLPRPRPRPPCPPRP | 0.0333 |
| RRIRMRPPRLPRPRPRPFIRPRP | -0.47 |
| RRIRSRPPRLPRPRPRPPFYPRP | -0.154 |

| Sequence | shrunken log2 fold change |
| --- | --- |
| RRIRYRPPRLPRPRPRPSQCPRP | -0.115 |
| RRIRNRPPRLPRPRPRPIRRPRP | -0.163 |
| RRIRRRPPRLPRPRPRPGILPRP | -0.174 |
| RRIRIRPPRLPRPRPRPWPEPRP | -0.162 |
| RRIRCRPPRLPRPRPRPHEIPRP | 0.322 |
| RRIRNRPPRLPRPRPRPTIRPRP | -0.0347 |
| RRIRWRPPRLPRPRPRPKKTPRP | 0.0382 |
| RRIRIRPPRLPRPRPRPPREPRP | 0.535 |
| RRIRMRPPRLPRPRPRPWWQPRP | 0.183 |
| RRIRRRPPRLPRPRPRPQDEPRP | -0.0204 |
| RRIRTRPPRLPRPRPRPCGMPRP | -0.0074 |
| RRIRPRPPRLPRPRPRPNDFPRP | -0.438 |
| RRIRNRPPRLPRPRPRPDVWPRP | -0.0172 |
| RRIRCRPPRLPRPRPRPSIWPRP | -0.342 |
| RRIRQRPPRLPRPRPRPHRDPRP | -0.322 |
| RRIRSRPPRLPRPRPRPWTDPRP | -0.12 |
| RRIRERPPRLPRPRPRPMGKPRP | -0.01 |
| RRIRWRPPRLPRPRPRPESNPRP | 0.535 |
| RRIRLRPPRLPRPRPRPLSGPRP | 0.15 |
| RRIRMRPPRLPRPRPRPRDPPRP | 0.705 |
| RRIRTRPPRLPRPRPRPRKAPRP | 0.326 |
| RRIRSRPPRLPRPRPRPHLPPRP | -0.27 |
| RRIRIRPPRLPRPRPRPIQFPRP | -0.048 |

| Sequence | shrunken log2 fold change |
| --- | --- |
| RRIRARPPRLPRPRPRPDCKPRP | -0.129 |
| RRIRRRPPRLPRPRPRPSHRPRP | -0.00626 |
| RRIRIRPPRLPRPRPRPTCNPRP | -0.313 |
| RRIRIRPPRLPRPRPRPVLSPRP | -0.311 |
| RRIRDRPPRLPRPRPRPVPPPRP | 0.453 |
| RRIRWRPPRLPRPRPRPMYEPRP | -0.103 |
| RRIRNRPPRLPRPRPRPFVMPRP | -0.0984 |
| RRIRTRPPRLPRPRPRPWKCPRP | -0.0161 |
| RRIRRRPPRLPRPRPRPHRQPRP | 0.0248 |
| RRIRKRPPRLPRPRPRPQSNPRP | 0.0971 |
| RRIRKRPPRLPRPRPRPAYWPRP | 0.424 |
| RRIRLRPPRLPRPRPRPNVAPRP | 0.0405 |
| RRIRVRPPRLPRPRPRPNEKPRP | -0.0575 |
| RRIRVRPPRLPRPRPRPQQVPRP | -0.0278 |
| RRIRGRPPRLPRPRPRPGPNPRP | 0.941 |
| RRIRLRPPRLPRPRPRPLSEPRP | 0.0386 |
| RRIRIRPPRLPRPRPRPVGEPRP | -0.0964 |
| RRIRFRPPRLPRPRPRPRFAPRP | 0.366 |
| RRIRKRPPRLPRPRPRPYLVPRP | -0.634 |
| RRIRWRPPRLPRPRPRPFPWPRP | -0.0524 |
| RRIRVRPPRLPRPRPRPPVNPRP | 0.159 |
| RRIRIRPPRLPRPRPRPINFPRP | -0.346 |
